Test results reported in paper doi:10.1101/2025.05.13.653810, “Spatial control of secretory vesicle targeting by the Ync13–Rga7–Rng10 complex during cytokinesis” (bioRxiv, 2025).

Target: T1, MBP-Ync13–6xHis (S. pombe, UniProt O13683 1-1237)
T1 construct: Ync13, the S. pombe homolog of Munc13/UNC-13; full-length cDNA between MBP-TEV-GGSGGS and the 6His tag of pET21a; MBP is followed by a TEV site and a GGSGGS linker; also called MBP-Ync13–6His; not shown: MBP, N-terminal, kept; His6, C-terminal, kept
T1 sequence (looked up): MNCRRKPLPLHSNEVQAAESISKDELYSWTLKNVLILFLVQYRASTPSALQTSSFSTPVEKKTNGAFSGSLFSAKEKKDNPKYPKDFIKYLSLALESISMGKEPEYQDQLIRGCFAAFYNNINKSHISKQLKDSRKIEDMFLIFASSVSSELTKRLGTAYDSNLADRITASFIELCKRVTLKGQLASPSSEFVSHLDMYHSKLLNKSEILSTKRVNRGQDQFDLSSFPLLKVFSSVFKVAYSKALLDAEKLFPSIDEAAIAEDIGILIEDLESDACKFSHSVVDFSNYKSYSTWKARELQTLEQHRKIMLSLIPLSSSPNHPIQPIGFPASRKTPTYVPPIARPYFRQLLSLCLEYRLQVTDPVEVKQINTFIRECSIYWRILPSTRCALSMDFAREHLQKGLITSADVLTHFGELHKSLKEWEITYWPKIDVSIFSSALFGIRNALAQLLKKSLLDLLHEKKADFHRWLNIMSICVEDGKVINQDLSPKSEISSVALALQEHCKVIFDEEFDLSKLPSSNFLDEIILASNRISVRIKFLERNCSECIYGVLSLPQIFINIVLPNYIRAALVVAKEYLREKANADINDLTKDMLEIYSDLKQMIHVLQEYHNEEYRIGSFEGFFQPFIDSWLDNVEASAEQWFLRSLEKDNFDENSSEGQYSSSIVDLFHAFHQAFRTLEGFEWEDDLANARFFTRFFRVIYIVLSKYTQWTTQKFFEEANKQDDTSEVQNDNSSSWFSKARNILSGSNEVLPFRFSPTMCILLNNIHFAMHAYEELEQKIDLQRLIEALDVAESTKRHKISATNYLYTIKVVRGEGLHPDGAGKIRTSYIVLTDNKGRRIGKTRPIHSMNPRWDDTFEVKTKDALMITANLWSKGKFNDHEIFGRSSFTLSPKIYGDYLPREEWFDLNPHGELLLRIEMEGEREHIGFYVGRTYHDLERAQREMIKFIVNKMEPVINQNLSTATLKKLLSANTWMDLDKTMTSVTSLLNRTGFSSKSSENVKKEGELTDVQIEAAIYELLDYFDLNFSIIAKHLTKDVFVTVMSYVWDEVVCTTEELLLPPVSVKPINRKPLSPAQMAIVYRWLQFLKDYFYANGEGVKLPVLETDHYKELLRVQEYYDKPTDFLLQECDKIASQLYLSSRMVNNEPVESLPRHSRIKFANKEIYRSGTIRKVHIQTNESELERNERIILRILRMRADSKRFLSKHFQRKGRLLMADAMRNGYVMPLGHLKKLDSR
Experiment: supernatant depletion assay; Rga7–6xHis at 4 μM titrated with MBP-Ync13–6xHis immobilized on Cobalt beads; beads pelleted at 16,000 g, supernatants on Coomassie-stained SDS-PAGE, bound fraction fitted
Settings: both partners purified

Kd: 10 µM
B1: Rga7–6xHis (natural protein, S. pombe, UniProt O94466 1-695, looked up)
chain: MLSAPSSSTTPASPPTSPPNTTSSDDFAVLKEPKVEAILNSELGLAILNDRIKDYLLTCKELAGFFKKRSILEEESGKNLQKLAKSYLETFQSKHHSPQSFSASVITSMEIHEQLANHSLTLQKTLSAFSDQVIEFHKNAERKRKSIKEYAKKQENAYLEAVMQMDKSKSRFKGAETEYNRALDNKNTGDSQKKVGFFKPKSNAQLTKLEDEARLKAENAESDMHSKIENAQNVQKQLLCIHRPNYIKQFFSLQREIESSLIANYLRYTKLCESNTLLNGLTIRPQKPTPTNCGLQHALDNINANTDFVQYVLHASIKHEDNKNPTDASKTKIIQPPSSYGTGSSAGKTNPPVNPTIKVTAAIPSPLQNTNPAPSTFPNPSVASPAFPNSSTSNPSTAPASASPLASTLKPSTANDTNGSSSSSSSNPRTSSPLASNAENKPPVAQQSPPVLLPTLPPIQTTTIQTSREVAPPPSSINSNRAASPFRPTSVSPQPSSPTKSLLFGARLDAIILREHSNIPNIVMQCTSQVENFGLNLQGIYRVPSSSARVNMLRSQFENNPLLQLHTPEDYENDVHAVADLLKIFFRELREPLIPDNHQRDFIDAGNVEDESRRRDAVHRAINDLPDANYSTIRHLTIHLAKIKENSDVNKMSTNNLAIIWGPTIIKQATIPEISSFSRTIEILIDYCFTIFDYD
notes: Rga7, F-BAR protein and Rho2 GAP of S. pombe; full length, cloned into pET21a between the T7 tag and the 6His tag; also called Rga7–6His; not shown: His6, C-terminal, kept
